Assay results: US20170267768A1 (University of California, published 2017)

B1: scFv-19 (scFv)
scFv: QVQLVQSGGGLVQPGGSLRLSCAASGFTFSSYAMHWVRQAPGKGLEWVSVISPPGHNTYYADSVKGRFTISRDNSKNTLYLQMNSLRAEDTAVYYCARASVGATGPFDIWGQGTLVTVSSASTGGGGSGGGGSGGGGSGGGGSSSELTQPPSVSVAPGQTVTITCQGDSLRSYYASWYQQKPGTAPKLLIYGENNRPSGVPDRFSGSSSGTSASLTITGAQAEDEADYYCNSRDSSGTHLTVFGGGTKLTVLG
B2: scFv-6 (scFv)
scFv: QVQLVQSGGGLVQPGGSLRLSCAASGFTFSSYAMHWVRQAPGKGLEWVSVISNNGHNKYYADSVKGRFTISRDNSKNTLYLQMNSLRAEDTAVYYCARASVGATGPFDIWGQGTLVTVSSASTGGGGSGGGGSGGGGSGGGGSSSELTQPPSVSVAPGQTVTITCQGDSLRSYYASWYQQKPGTAPKLLIYGENNRPSGVPDRFSGSSSGTSASLTITGAQAEDEADYYCNSRDSSGTHLTVFGGGTKLTVLG
B3: scFv-13 (scFv)
scFv: QVQLVQSGGGLVQPGGSLRLSCAASGFTFSSYAMHWVRQAPGKGLEWVTVISPTGANTYYADSVKGRFTISRDNSKNTLYLQMNSLRAEDTAVYYCARASVGATGPFDIWGQGTLVTVSSASTGGGGSGGGGSGGGGSGGGGSSSELTQPPSVSVAPGQTVTITCQGDSLRSYYASWYQQKPGTAPKLLIYGENNRPSGVPDRFSGSSSGTSASLTITGAQAEDEADYYCNSRDSSGTHLTVFGGGTKLTVLG
B4: scFv-4 (scFv)
scFv: QVQLVQSGGGLVQPGGSLRLSCAASGFTFSSYAMHWVRQAPGKGLEWVTVISPHGRNKYYADSVKGRFTISRDNSKNTLYLQMNSLRAEDTAVYYCARASVGATGPFDIWGQGTLVTVSSASTGGGGSGGGGSGGGGSGGGGSSSELTQPPSVSVAPGQTVTITCQGDSLRSYYASWYQQKPGTAPKLLIYGENNRPSGVPDRFSGSSSGTSASLTITGAQAEDEADYYCNSRDSSGTHLTVFGGGTKLTVLG
B5: scFv-1 (scFv)
scFv: QVQLVQSGGGLVQPGGSLRLSCAASGFTFSSYAMHWVRQAPGKGLEWVSVISPAGNNTYYADSVKGRFTISRDNSKNTLYLQMNSLRAEDTAVYYCARASVGATGPFDIWGQGTLVTVSSASTGGGGSGGGGSGGGGSGGGGSSSELTQPPSVSVAPGQTVTITCQGDSLRSYYASWYQQKPGTAPKLLIYGENNRPSGVPDRFSGSSSGTSASLTITGAQAEDEADYYCNSRDSSGTHLTVFGGGTKLTVLG
B6: scFv-9 (scFv)
scFv: QVQLVQSGGGLVQPGGSLRLSCAASGFTFSSYAMHWVRQAPGKGLEWVTVISPNGHNTYYADSVKGRFTISRDNSKNTLYLQMNSLRAEDTAVYYCARASVGATGPFDIWGQGTLVTVSSASTGGGGSGGGGSGGGGSGGGGSSSELTQPPSVSVAPGQTVTITCQGDSLRSYYASWYQQKPGTAPKLLIYGENNRPSGVPDRFSGSSSGTSASLTITGAQAEDEADYYCNSRDSSGTHLTVFGGGTKLTVLG
B7: scFv-11 (scFv)
scFv: QVQLVQSGGGLVQPGGSLRLSCAASGFTFSSYAMHWVRQAPGKGLEWVAVISHHGSNTYYADSVKGRFTISRDNSKNTLYLQMNSLRAEDTAVYYCARASVGATGPFDIWGQGTLVTVSSASTGGGGSGGGGSGGGGSGGGGSSSELTQPPSVSVAPGQTVTITCQGDSLRSYYASWYQQKPGTAPKLLIYGENNRPSGVPDRFSGSSSGTSASLTITGAQAEDEADYYCNSRDSSGTHLTVFGGGTKLTVLG
B8: scFv-16 (scFv)
scFv: QVQLVQSGGGLVQPGGSLRLSCAASGFTFSSYAMHWVRQAPGKGLEWVSVISNNGHNTYYADSVKGRFTISRDNSKNTLYLQMNSLRAEDTAVYYCARASVGATGPFDIWGQGTLVTVSSASTGGGGSGGGGSGGGGSGGGGSSSELTQPPSVSVAPGQTVTITCQGDSLRSYYASWYQQKPGTAPKLLIYGENNRPSGVPDRFSGSSSGTSASLTITGAQAEDEADYYCNSRDSSGTHLTVFGGGTKLTVLG
B9: scFv-18 (scFv)
scFv: QVQLVQSGGGLVQPGGSLRLSCAASGFTFSSYAMHWVRQAPGKGLEWVSVISPAGTNTYYADSVKGRFTISRDNSKNTLYLQMNSLRAEDTAVYYCARASVGATGPFDIWGQGTLVTVSSASTGGGGSGGGGSGGGGSGGGGSSSELTQPPSVSVAPGQTVTITCQGDSLRSYYASWYQQKPGTAPKLLIYGENNRPSGVPDRFSGSSSGTSASLTITGAQAEDEADYYCNSRDSSGTHLTVFGGGTKLTVLG
B10: scFv-10 (scFv)
scFv: QVQLVQSGGGLVQPGGSLRLSCAASGFTFSSYAMHWVRQAPGKGLEWVSAISPPGHNTYYADSVKGRFTISRDNSKNTLYLQMNSLRAEDTAVYYCARASVGATGPFDIWGQGTLVTVSSASTGGGGSGGGGSGGGGSGGGGSSSELTQPPSVSVAPGQTVTITCQGDSLRSYYASWYQQKPGTAPKLLIYGENNRPSGVPDRFSGSSSGTSASLTITGAQAEDEADYYCNSRDSSGTHLTVFGGGTKLTVLG
B11: scFv-2 (scFv)
scFv: QVQLVQSGGGLVQPGGSLRLSCAASGFTFSSYAMHWVRQAPGKGLEWVSVISPAGRNKYYADSVKGRFTISRDNSKNTLYLQMNSLRAEDTAVYYCARASVGATGPFDIWGQGTLVTVSSASTGGGGSGGGGSGGGGSGGGGSSSELTQPPSVSVAPGQTVTITCQGDSLRSYYASWYQQKPGTAPKLLIYGENNRPSGVPDRFSGSSSGTSASLTITGAQAEDEADYYCNSRDSSGTHLTVFGGGTKLTVLG
B12: scFv-17 (scFv)
scFv: QVQLVQSGGGLVQPGGSLRLSCAASGFTFSSYAMHWVRQAPGKGLEWVTVISPPGSNKYYADSVKGRFTISRDNSKNTLYLQMNSLRAEDTAVYYCARASVGATGPFDIWGQGTLVTVSSASTGGGGSGGGGSGGGGSGGGGSSSELTQPPSVSVAPGQTVTITCQGDSLRSYYASWYQQKPGTAPKLLIYGENNRPSGVPDRFSGSSSGTSASLTITGAQAEDEADYYCNSRDSSGTHLTVFGGGTKLTVLG
B13: scFv-8 (scFv)
scFv: QVQLVQSGGGLVQPGGSLRLSCAASGFTFSSYAMHWVRQAPGKGLEWVTVISPSGHNTYYADSVKGRFTISRDNSKNTLYLQMNSLRAEDTAVYYCARASVGATGPFDIWGQGTLVTVSSASTGGGGSGGGGSGGGGSGGGGSSSELTQPPSVSVAPGQTVTITCQGDSLRSYYASWYQQKPGTAPKLLIYGENNRPSGVPDRFSGSSSGTSASLTITGAQAEDEADYYCNSRDSSGTHLTVFGGGTKLTVLG
B14: scFv-7 (scFv)
scFv: QVQLVQSGGGLVQPGGSLRLSCAASGFTFSSYAMHWVRQAPGKGLEWVSVISPAGPNTYYADSVKGRFTISRDNSKNTLYLQMNSLRAEDTAVYYCARASVGATGPFDIWGQGTLVTVSSASTGGGGSGGGGSGGGGSGGGGSSSELTQPPSVSVAPGQTVTITCQGDSLRSYYASWYQQKPGTAPKLLIYGENNRPSGVPDRFSGSSSGTSASLTITGAQAEDEADYYCNSRDSSGTHLTVFGGGTKLTVLG
B15: scFv-15 (scFv)
scFv: QVQLVQSGGGLVQPGGSLRLSCAASGFTFSSYAMHWVRQAPGKGLEWVSVISPHGSNKYYADSVKGRFTISRDNSKNTLYLQMNSLRAEDTAVYYCARASVGATGPFDIWGQGTLVTVSSASTGGGGSGGGGSGGGGSGGGGSSSELTQPPSVSVAPGQTVTITCQGDSLRSYYASWYQQKPGTAPKLLIYGENNRPSGVPDRFSGSSSGTSASLTITGAQAEDEADYYCNSRDSSGTHLTVFGGGTKLTVLG
B16: scFv-5 (scFv)
scFv: QVQLVQSGGGLVQPGGSLRLSCAASGFTFSSYAMHWVRQAPGKGLEWVSVISRRGDNKYYADSVKGRFTISRDNSKNTLYLQMNSLRAEDTAVYYCARASVGATGPFDIWGQGTLVTVSSASTGGGGSGGGGSGGGGSGGGGSSSELTQPPSVSVAPGQTVTITCQGDSLRSYYASWYQQKPGTAPKLLIYGENNRPSGVPDRFSGSSSGTSASLTITGAQAEDEADYYCNSRDSSGTHLTVFGGGTKLTVLG
B17: scFv-14 (scFv)
scFv: QVQLVQSGGGLVQPGGSLRLSCAASGFTFSSYAMHWVRQAPGKGLEWVTVISPAGPNKYYADSVKGRFTISRDNSKNTLYLQMNSLRAEDTAVYYCARASVGATGPFDIWGQGTLVTVSSASTGGGGSGGGGSGGGGSGGGGSSSELTQPPSVSVAPGQTVTITCQGDSLRSYYASWYQQKPGTAPKLLIYGENNRPSGVPDRFSGSSSGTSASLTITGAQAEDEADYYCNSRDSSGTHLTVFGGGTKLTVLG

target: T1, human EphA2 on OVCAR-3 and U-251 cells (human, UniProt P29317 24-976); assay: CLIA: scFv-decorated fluorescent NTA(Ni) liposomes on EphA2-expressing cells, FACS
T1 construct: whole, on cells; also called EphA2 receptors
T1 sequence (P29317 24-976): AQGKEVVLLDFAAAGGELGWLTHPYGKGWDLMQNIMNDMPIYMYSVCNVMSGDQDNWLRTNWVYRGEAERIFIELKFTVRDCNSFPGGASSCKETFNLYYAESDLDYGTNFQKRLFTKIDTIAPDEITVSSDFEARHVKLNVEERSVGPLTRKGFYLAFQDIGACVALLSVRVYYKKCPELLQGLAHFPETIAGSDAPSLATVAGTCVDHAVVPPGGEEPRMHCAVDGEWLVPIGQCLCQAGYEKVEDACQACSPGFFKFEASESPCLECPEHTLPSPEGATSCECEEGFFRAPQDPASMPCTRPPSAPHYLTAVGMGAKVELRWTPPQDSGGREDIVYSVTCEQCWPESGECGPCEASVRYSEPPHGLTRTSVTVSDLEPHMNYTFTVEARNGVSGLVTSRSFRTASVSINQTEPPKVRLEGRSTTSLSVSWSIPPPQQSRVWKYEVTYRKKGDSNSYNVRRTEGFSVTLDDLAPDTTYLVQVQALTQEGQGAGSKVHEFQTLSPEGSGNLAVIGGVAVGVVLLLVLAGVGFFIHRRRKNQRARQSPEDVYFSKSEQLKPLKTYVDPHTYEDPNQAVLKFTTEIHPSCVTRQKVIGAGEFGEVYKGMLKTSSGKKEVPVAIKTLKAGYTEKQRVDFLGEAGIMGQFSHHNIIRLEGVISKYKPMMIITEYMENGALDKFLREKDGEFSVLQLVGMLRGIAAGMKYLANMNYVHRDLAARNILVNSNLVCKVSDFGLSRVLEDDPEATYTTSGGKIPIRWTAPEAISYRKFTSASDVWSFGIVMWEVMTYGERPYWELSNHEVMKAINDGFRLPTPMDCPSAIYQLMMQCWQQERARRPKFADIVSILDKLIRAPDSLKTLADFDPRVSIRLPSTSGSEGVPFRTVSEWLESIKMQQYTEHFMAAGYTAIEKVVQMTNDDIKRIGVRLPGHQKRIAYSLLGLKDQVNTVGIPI
Protocol: To test the anti-EphA2 activity of these variant scFvs, the binding and internalization of liposomes externally decorated with these Abs was assayed on cell lines expressing EphA2. A rapid high-throughput Chelated Ligand-induced Internalization Assay (CLIA) (Nielsen et al., BMC immunology, 2006, 7:24) was used to screen anti-EphA2-scFv-targeted liposomes for binding and internalization assessment. Two cell lines that express high levels of EphA2 receptors, OVCAR-3 and U-251, were tested, as well as a murine EphA2-expressing mouse cell line, CT-26 (to test whether cross-reactivity to murine EphA2 was retained by the engineered scFvs). Via nickel-binding by each scFv's c-terminal His6 tag, the scFvs were bound to fluorescently labeled liposomes comprising an NTA(Ni) conjugated lipid (Dil5-NTA liposomes).
Dil5-NTA liposomes were prepared as follows. The NTA conjugated lipid, DOD-Tri-NTA, was synthesized as described in Huang et al., Bioconjugate chemistry, 2006, vol. 17, p. 1592-1600. Hydrogenated soy phosphatidylcholine (HSPC), cholesterol, methoxy-PEG(2000)-distearoylphosphatidylethanolamine (PEG-DSPE), DOD-tri-NTA, and a fluorescent lipid dye, Dil5, (ThermoFisher® Invitrogen® Molecular Probes™, cat. # D12370) were combined in a chloroform solution at the molar ratio of 100:66.7:5:0.5:0.3 respectively and the solution evaporated under vacuum to dryness forming a lipid film. The film was hydrated in HEPES-buffered physiological saline (“HBS-6.5”—5 mM HEPES, 144 mM NaCl pH 6.5) at 68° C., the resulting lipid suspension was subjected to several cycles of freezing (dry ice-acetone) and thawing (68C), and extruded through two stacked polycarbonate membranes (Whatman Nuclepore, USA) with the pore size of 200 nm (6 times) and 100 nm (10 times) using Lipex™ thermobarrel extruder (Northern Lipids, Canada). This protocol typically produces unilamellar vesicles with the z-average size of 100-110 nm and polydispersity index less than 0.1. The extruded liposomes were chilled to room temperature, purified by gel-chromatography on a Sephadex® G-75 (GE Healthcare) column eluted with HBS-6.5, and then sterilized by passage through a 0.2-μm filter. The concentration of liposomal phospholipid was then determined after acid digestion using spectrophotometric phosphomolybdate method.

Binding result, binds:
B1
B2
B3
B4
B5
B6
B7
B8
B9
B10
B11
B12
B13
B14
B15
B16
B17
